Molecular target: CD26 on human monocyte-derived immature dendritic cells (human (endogenous in monocyte-derived iDCs)) (UniProt P27487)
Chain of UniProt P27487 (P27487 whole entry): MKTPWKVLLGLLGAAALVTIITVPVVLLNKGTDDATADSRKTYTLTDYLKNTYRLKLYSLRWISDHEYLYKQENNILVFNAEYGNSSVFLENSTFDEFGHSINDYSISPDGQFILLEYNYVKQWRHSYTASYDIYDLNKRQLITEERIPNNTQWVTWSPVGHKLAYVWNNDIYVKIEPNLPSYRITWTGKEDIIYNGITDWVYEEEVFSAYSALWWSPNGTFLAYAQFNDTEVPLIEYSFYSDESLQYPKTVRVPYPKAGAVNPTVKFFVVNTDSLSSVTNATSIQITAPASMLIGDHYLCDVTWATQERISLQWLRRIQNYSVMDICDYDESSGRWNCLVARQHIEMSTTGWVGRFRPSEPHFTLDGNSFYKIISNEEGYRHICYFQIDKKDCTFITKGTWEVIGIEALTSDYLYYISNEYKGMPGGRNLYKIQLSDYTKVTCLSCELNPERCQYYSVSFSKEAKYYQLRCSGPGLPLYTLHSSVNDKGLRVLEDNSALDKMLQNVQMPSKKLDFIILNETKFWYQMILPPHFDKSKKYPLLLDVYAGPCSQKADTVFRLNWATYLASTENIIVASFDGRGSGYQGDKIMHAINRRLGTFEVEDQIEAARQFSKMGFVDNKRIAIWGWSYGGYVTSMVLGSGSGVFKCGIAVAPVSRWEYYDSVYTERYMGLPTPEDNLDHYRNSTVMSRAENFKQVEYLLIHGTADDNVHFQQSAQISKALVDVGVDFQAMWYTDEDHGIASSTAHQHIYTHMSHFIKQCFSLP

B1: Adenosine deaminase (ADA, EC 3.5.4.4) from calf intestine (enzyme)
chain: MAQTPAFNKPKVELHVHLDGAIKPETILYYGRKRGIALPADTPEELQNIIGMDKPLSLPEFLAKFDYYMPAIAGCREAVKRIAYEFVEMKAKDGVVYVEVRYSPHLLANSKVEPIPWNQAEGDLTPDEVVSLVNQGLQEGERDFGVKVRSILCCMRHQPSWSSEVVELCKKYREQTVVAIDLAGDETIEGSSLFPGHVKAYAEAVKSGVHRTVHAGEVGSANVVKEAVDTLKTERLGHGYHTLEDATLYNRLRQENMHFEVCPWSSYLTGAWKPDTEHPVVRFKNDQVNYSLNTDDPLIFKSTLDTDYQMTKNEMGFTEEEFKRLNINAAKSSFLPEDEKKELLDLLYKAYGMPSPASAEQCL
- ADA-mediated upregulation of CD80 on iDCs (flow cytometry, 48 h, 2 uM ADA) after pre-incubation of the cells with the anti-CD26 mAb TA5.9 (directed against the ADA-binding epitope on CD26): 0.64 in-fold
- ADA-mediated upregulation of CD83 on iDCs (flow cytometry, 48 h, 2 uM ADA) after pre-incubation of the cells with the anti-CD26 mAb TA5.9 (directed against the ADA-binding epitope on CD26): 0.46 in-fold

From publication PMC3519778
